# Target: T1, Ioc4 PWWP domain (Saccharomyces cerevisiae) (UniProt Q04213)
# T1 sequence: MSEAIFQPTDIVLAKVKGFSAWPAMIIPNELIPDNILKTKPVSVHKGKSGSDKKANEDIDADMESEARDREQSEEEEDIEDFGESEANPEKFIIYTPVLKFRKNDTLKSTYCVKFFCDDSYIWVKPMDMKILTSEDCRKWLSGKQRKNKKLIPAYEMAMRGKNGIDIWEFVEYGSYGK
# Assay: EMSA
# Conditions: H3K36me3; H3 tail 1-44 ligated to H3T45C; Xenopus laevis histones
substance,measurement,value
NCP H3K36me3,binding signal (fold higher affinity vs dsDNA),6

# Reference: publication doi:10.1101/2021.02.26.432832
